Measurements reported in publication PMC10071783 (Journal of Nuclear Medicine, 2023).
Like-named read-outs stand apart in the source and are kept apart here.

Key:
[1] = parameters: method as in PMID 33772332; details: cited from earlier work
[2] = parameters: method as in PMID 33772332; details: 148 kBq; cited from earlier work
[3] = Serum stability in human serum at 37°C by ITLC; assay type: in vitro ADME; details: for remaining at 240 h, 370 kBq/mL: human serum (EMD Millipore), pH 7.4, 370 kBq in 1 mL, up to 10 d, read-out ITLC, read-out: intact conjugate remaining in human serum; for stability in human serum: ITLC
Experimental: Radiochelate was diluted to 370 kBq in 1 mL of human serum and placed on an Eppendorf ThermoMixer set to 37°C. At fixed intervals, aliquots were removed from the reactions and analyzed by ITLC as described in the supplemental information.

[4] = Biodistribution in mice bearing subcutaneous H69 tumor xenografts; assay type: in vivo; details: female, NCI Athymic NCr-nu/nu, mouse, 37 kBq, total radioactivity; for tissue uptake at 4 h: 4 h after injection, read-out: kidney percentage injected activity per gram of tissue; for tissue uptake at 2 h: 2 h after injection; for tissue uptake at 2 h / tissue uptake at 24 h: H69 xenograft mice, n = 3, read-out: tumor uptake, percentage injected activity per gram of tissue; for tissue uptake at 24 h: 24 h after injection
Experimental: All procedures and animal studies followed a protocol approved by the National Institutes of Health Institutional Animal Care and Use Committee (protocol ROB104). Female athymic homozygous nude mice (NCI Athymic NCr-nu/nu strain 553; Charles River Laboratories), 8–10 wk old, were subcutaneously engrafted with 8 × 10^6 H69 cells in 200 μL of ice-cold phosphate-buffered saline. Treatment of tumors with radiotracers for biodistribution or therapy studies was performed once palpable tumors developed, approximately 1 mo after inoculation. […] Full experimental details for the biodistribution experiments are reported in the supplemental information.
(C) Corresponding tumor-to-tissue ratios for selected organs with lysine pretreatment. Full 12-organ biodistribution data are reported in Supplemental Figures 8–11. Error bars represent SD. ***P < 0.005. […]. %IA/g = percentage injected activity per gram of tissue.

[5] = 8 d; cited from earlier work
Experimental: DOTA and its derivatives are used to chelate ^225Ac and many of the previously mentioned radionuclides. However, to chelate ^225Ac with DOTA to yield high-specific-activity radioconjugates, temperatures above 70°C are typically required. Even if these temperatures are used, the resulting complex’s thermodynamic stability ([19]) and labeling kinetics are suboptimal ([20]).

[6] = Dose-finding study in mice bearing H69 tumor xenografts; assay type: in vivo; details: D-lysine pretreatment
Excerpt: The promising biodistribution profile of ^225Ac-MACROPATATE led us to investigate its therapeutic efficacy. […] All mice in the 148-kBq treatment group (10/10) and 1 of 3 mice in the 92.3-kBq group were euthanized within 10 d of treatment because of substantial weight loss (>20%).

H69 lung NET xenografts = experiment: Head-to-head therapy study in mice engrafted with H69 cells; assay type: in vivo; details: 46.3 kBq
Experimental: Animals engrafted with H69 cells were treated with either of the 2 radioconjugates or saline (n = 8–10, each). Local control and survival were the primary outcomes. All groups were tracked for humane endpoints including, but not limited to, tumors larger than 2,000 mm^3 and weight loss greater than 20%.
FIGURE 5. […] (A) Tumor volume measurements over time. Solid lines represent average volume, and dashed lines represent 95% CI. Plots for each dataset are discontinued after first mouse death due to excessive tumor volume. Full tumor volume measurements for study duration for each mouse are reported in Supplemental Figures 15–17. (B) Maximal response to treatment (tumor volume growth percentage) of individual mice. Nonresponding mice are represented as full tumor growth (2,000% increase). (C) Mouse survival over time. Endpoint was defined as tumor volume > 2,000 mm^3 or weight loss over 20% of starting weight. (D) Average mouse body weights over time for each treatment group. Error bars represent SD. ***P < 0.005. *P < 0.05.

| SMILES | intact 225Ac-DOTATATE after 10 d [1] [%] | tolerability in mice [2] | remaining at 240 h, 370 kBq/mL [3] [%] | stability in human serum [3] | tissue uptake at 4 h ([4]; kidney, after D-lysine administration (35 mg/mouse)) [%ID/g] | tissue uptake at 4 h ([4]; kidney, without D-lysine) [%ID/g] | tissue uptake at 2 h ([4]; tumor) [%ID/g] | tissue uptake at 24 h ([4]; tumor) [%ID/g] | stability in C57BL6 mice compared with 225Ac-DOTA [5] | stability in human serum compared with 225Ac-DOTA [5] | mice euthanized within 10 d of treatment because of substantial weight loss (>20%) ([6]; 92.3-kBq group) | mice euthanized within 10 d of treatment because of substantial weight loss (>20%) ([6]; 148-kBq treatment group) | duration of initial reduction in tumor volume after treatment (H69 lung NET xenografts) | mice whose tumors subsequently relapsed (H69 lung NET xenografts) | median survival (H69 lung NET xenografts; H69 xenograft mice, n = 8-10, vehicle 26 d, log rank P = 0.0006) [days] | tissue uptake at 2 h ([4]; in vivo) [%ID/g] | tissue uptake at 4 h ([4]; in vivo, after D-lysine administration (35 mg/mouse)) [%ID/g] | tissue uptake at 4 h ([4]; in vivo, without D-lysine) [%ID/g] | tissue uptake at 24 h ([4]; in vivo) [%ID/g] |
| --- | --- | --- | --- | --- | --- | --- | --- | --- | --- | --- | --- | --- | --- | --- | --- | --- | --- | --- | --- |
| C[C@@H](O)[C@H](NC(=O)[C@@H]1CSSC[C@H](NC(=O)[C@@H](Cc2ccccc2)NC(=O)CN2CCN(CC(=O)O)CCN(CC(=O)O)CCN(CC(=O)O)CC2)C(=O)N[C@@H](Cc2ccc(O)cc2)C(=O)N[C@H](Cc2c[nH]c3ccccc23)C(=O)N[C@@H](CCCCN)C(=O)N[C@@H]([C@@H](C)O)C(=O)N1)C(=O)O [^225Ac-DOTATATE, metal not drawn, reference compound] | 90 | well tolerated | 95 | stable to 10 d | 3.1 | 6 | 5 | 2 |  |  |  |  |  |  |  |  |  |  |  |
| O=C([O-])c1cccc(CN2CCOCCOCCN(Cc3cccc(C(=O)[O-])n3)CCOCCOCC2)n1.[225Ac+3] [^225Ac-MACROPA] |  |  |  |  |  |  |  |  | comparable stability | comparable stability |  |  |  |  |  |  |  |  |  |
| C[C@@H](O)[C@H](NC(=O)[C@@H]1CSSC[C@H](NC(=O)[C@@H](Cc2ccccc2)NC(=S)Nc2cc(CN3CCOCCOCCN(Cc4cccc(C(=O)O)n4)CCOCCOCC3)nc(C(=O)O)c2)C(=O)N[C@@H](Cc2ccc(O)cc2)C(=O)N[C@H](Cc2c[nH]c3ccccc23)C(=O)N[C@@H](CCCCN)C(=O)N[C@@H]([C@@H](C)O)C(=O)N1)C(=O)O [^225Ac-MACROPATATE, metal not drawn] |  |  | 98 | stable to 10 d |  |  |  |  |  |  | 1 of 3 | 10/10 | approximately 3 wk | 7 of 8 | 55 | 9 | 5.2 | 11.5 | 4 |
